{"source": "paper PMC4201290", "about": "“Wilms tumor protein recognizes 5-carboxylcytosine within a specific DNA sequence”"}
{"molecular_target": "Egr1/Zif268 ZnF1-3 (Homo sapiens, UniProt P18146)", "experiment": "X-ray crystallography; Zn2+; FP: 5 nM FAM-dsDNA, 300 mM NaCl (200 mM in Fig 4E), 20 mM Tris-HCl pH 7.5, 5% glycerol, 0.5 mM TCEP, 25 C, 10 min"}
{"binder": "crystal oligo Egr1 5hmC/5hmC (dsDNA, 5hmC in both strands of the 3' GCG) DNA 1: AGCGTGGGCGT DNA 2: TACGCCCACGC", "binding result": "binds"}
{"binder": "crystal oligo Egr1 5fC/5fC (dsDNA, 5fC in both strands of the 3' GCG) DNA 1: AGCGTGGGCGT DNA 2: TACGCCCACGC", "binding result": "binds"}
{"binder": "crystal oligo Egr1 5mC/5mC (dsDNA, 5mC in both strands of the 3' GCG) DNA 1: AGCGTGGGCGT DNA 2: TACGCCCACGC", "binding result": "binds"}
